Results as given in patent publication US20240287138A1 (Merck Sharp & Dohme, published 2024).
Numbered stars: 1 amine (or outer) side, 2 acyl side, 3 side chain; on linkers, the order of the positions; unused ones are H or OH. Bridge positions count the residues as written; N and C are the ends. Square brackets hold non-standard residues; d marks the D form. Primed or numbered codes have the meaning given here. NEtCNG = 2-(2-Cyanoethylamino)acetic acid ((2-cyanoethyl)glycine), N#CCCN(CC(=O)[*:2])[*:1]; bhcLeu = (1R,3S)-3-aminocyclopentane-1-carboxylic acid, O=C([C@@H]1CC[C@H](N[*:1])C1)[*:2]; Trp(βS-Me,7-OMe) = COc1cccc2c([C@H](C)[C@H](N)C(=O)O)c[nH]c12; Trp(βS-Me) = C[C@@H](c1c[nH]c2ccccc12)[C@H](N)C(=O)O; Trp(7-Cl) = N[C@@H](Cc1c[nH]c2c(Cl)cccc12)C(=O)O; Phe(4-CONH2) = NC(=O)c1ccc(C[C@H](N)C(=O)O)cc1; Phe(4-COOH) = N[C@@H](Cc1ccc(C(=O)O)cc1)C(=O)O; Trp(7-aza) = N[C@@H](Cc1c[nH]c2ncccc12)C(=O)O; Pip(5R-OH) = O=C(O)[C@@H]1CC[C@@H](O)CN1; αMeW = C[C@](N)(Cc1c[nH]c2ccccc12)C(=O)O; Ala(2-furyl) = N[C@@H](Cc1ccco1)C(=O)O; 2Nal = N[C@@H](Cc1ccc2ccccc2c1)C(=O)O; Dap(CONH2) = NC(=O)NC[C@H](N)C(=O)O; Pip(4-aza) = O=C(O)[C@@H]1CNCCN1; 3Pal = N[C@@H](Cc1cccnc1)C(=O)O; 4Pal = N[C@@H](Cc1ccncc1)C(=O)O; NMeE = CN[C@@H](CCC(=O)O)C(=O)O; Pip = O=C(O)[C@@H]1CCCCN1; αMeS = C[C@](N)(CO)C(=O)O; Nle = CCCC[C@H](N)C(=O)O; Ahp′ = not defined here; Sar = CNCC(=O)O

T1: TNFR1 on THP-1 Lucia NF-κB cells (UniProt P19438 30-455, limits assumed)
T1 sequence (looked up): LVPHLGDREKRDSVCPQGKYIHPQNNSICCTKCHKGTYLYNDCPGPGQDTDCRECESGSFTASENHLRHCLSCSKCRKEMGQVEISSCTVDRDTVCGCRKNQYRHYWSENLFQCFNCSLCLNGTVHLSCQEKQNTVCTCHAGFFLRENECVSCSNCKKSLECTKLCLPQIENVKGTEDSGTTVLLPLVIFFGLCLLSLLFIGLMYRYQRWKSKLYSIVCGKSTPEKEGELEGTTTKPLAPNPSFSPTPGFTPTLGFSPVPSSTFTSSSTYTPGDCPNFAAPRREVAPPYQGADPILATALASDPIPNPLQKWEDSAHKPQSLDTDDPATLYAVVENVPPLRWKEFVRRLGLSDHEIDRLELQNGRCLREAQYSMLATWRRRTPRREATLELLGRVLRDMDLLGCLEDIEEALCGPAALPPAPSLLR


Target: T1, TNFR1 on THP-1 Lucia NF-κB cells
Assay: cell-based or functional assay

| THP-1 IC50 [nM] | Binder |
| --- | --- |
| 4.2 | {CH2CO}-[Nle][4Pal][Pip(4-aza)]W[dP]N[Ala(2-furyl)][Trp(7-Cl)][αMeS][Phe(4-COOH)]Y[Sar][Trp(βS-Me,7-OMe)]C-NH2 (thioether N-14; SMILES CCCC[C@@H]1NC(=O)CSC[C@@H](C(N)=O)NC(=O)[C@H]([C@@H](C)c2c[nH]c3c(OC)cccc23)NC(=O)CN(C)C(=O)[C@H](Cc2ccc(O)cc2)NC(=O)[C@H](Cc2ccc(C(=O)O)cc2)NC(=O)[C@](C)(CO)NC(=O)[C@H](Cc2c[nH]c3c(Cl)cccc23)NC(=O)[C@H](Cc2ccco2)NC(=O)[C@H](CC(N)=O)NC(=O)[C@H]2CCCN2C(=O)[C@H](Cc2c[nH]c3ccccc23)NC(=O)[C@@H]2CNCCN2C(=O)[C@H](Cc2ccncc2)NC1=O) [SEQ ID NO. 236] |
| 0.9 | cyclo([bhcLeu][Nle][4Pal][Pip(4-aza)]W[NMeE][Dap(CONH2)][4Pal][Trp(7-Cl)][αMeS][Phe(4-COOH)]Y[Sar][Trp(βS-Me,7-OMe)]) (SMILES CCCC[C@@H]1NC(=O)[C@@H]2CC[C@@H](C2)NC(=O)[C@H]([C@@H](C)c2c[nH]c3c(OC)cccc23)NC(=O)CN(C)C(=O)[C@H](Cc2ccc(O)cc2)NC(=O)[C@H](Cc2ccc(C(=O)O)cc2)NC(=O)[C@](C)(CO)NC(=O)[C@H](Cc2c[nH]c3c(Cl)cccc23)NC(=O)[C@H](Cc2ccncc2)NC(=O)[C@H](CNC(N)=O)NC(=O)[C@H](CCC(=O)O)N(C)C(=O)[C@H](Cc2c[nH]c3ccccc23)NC(=O)[C@@H]2CNCCN2C(=O)[C@H](Cc2ccncc2)NC1=O) [SEQ ID NO. 225] |
| 20.8 | {CH2CO}-[Ahp′][4Pal]S[Trp(βS-Me)][dP]N[Phe(4-COOH)][2Nal][αMeS][Phe(4-COOH)]H[Sar][αMeW]C-NH2 (thioether N-14; reading uncertain; also: printed as cyclo(ClAc-Ahp-4Pal-S-SbMeW-dP-N-Phe4COOH-2Nal-aMeS-Phe4COOH-H-Sar-aMeW-C)-NH2) [SEQ ID NO. 237] |
| 0.7 | cyclo([bhcLeu][LysMe2][4Pal][Pip(5R-OH)]W[NMeE]N[4Pal][Trp(7-Cl)][αMeS][Phe(4-CONH2)]Y[Sar][Trp(βS-Me,7-OMe)]) [SEQ ID NO. 238] |
| 4 | {CH2CO}-[Nle][4Pal][Pip][Trp(7-aza)][NEtCNG]N[4Pal][Trp(7-Cl)][αMeS][Phe(4-COOH)]Y[Sar][Trp(βS-Me,7-OMe)]C-NH2 (thioether N-14; SMILES CCCC[C@@H]1NC(=O)CSC[C@@H](C(N)=O)NC(=O)[C@H]([C@@H](C)c2c[nH]c3c(OC)cccc23)NC(=O)CN(C)C(=O)[C@H](Cc2ccc(O)cc2)NC(=O)[C@H](Cc2ccc(C(=O)O)cc2)NC(=O)[C@](C)(CO)NC(=O)[C@H](Cc2c[nH]c3c(Cl)cccc23)NC(=O)[C@H](Cc2ccncc2)NC(=O)[C@H](CC(N)=O)NC(=O)CN(CCC#N)C(=O)[C@H](Cc2c[nH]c3ncccc23)NC(=O)[C@@H]2CCCCN2C(=O)[C@H](Cc2ccncc2)NC1=O) [SEQ ID NO. 228] |
| 10 | {CH2CO}-[Ahp′]Y[AlaPiperaz][Trp(βS-Me)][dP]N[4Pal][Trp(7-Cl)][αMeS][Phe(4-COOH)][3Pal][Sar][αMeW]C-NH2 (thioether N-14; reading uncertain; also: printed as cyclo(ClAc-Ahp-Y-AlaPiperaz-SbMeW-dP-N-4Pal-Trp7Cl-aMeS-Phe4COOH-3Pal-Sar-aMeW-C)-NH2) [SEQ ID NO. 226] |
